For this experiment, the target named is T1, Cynomolgus CD3εδ Fc heterodimer (Cy CD3ε Fc / CD3δ Fc-HIS) (cynomolgus, UniProt Q95LI8 22-100).
T1 chain 1: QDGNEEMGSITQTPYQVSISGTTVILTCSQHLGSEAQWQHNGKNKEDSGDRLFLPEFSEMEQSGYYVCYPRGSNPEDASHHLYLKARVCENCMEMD
T1 chain 2: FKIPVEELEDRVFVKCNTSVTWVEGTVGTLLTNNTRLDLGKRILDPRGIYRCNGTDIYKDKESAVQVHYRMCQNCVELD
Description: BLI (Octet), IgG on AHC sensor, pH 6.0. On the technique in general: In BLI a coated tip is dipped into the sample, and binding shifts an interference pattern.

We go through 31 molecules from patent US20220380463A1 (Adimab, published 2022).

Where a chain is given by its changes, count along the chain named.

B1: SAD10320_P04_F10 (ADI-57385) (antibody, V domains shown)
VH: QVQLVQSGAEVKKPGASVKVSCKASGFNIKDYYMHWVRQAPGQTLDWMGWIDLENANTIYDAKFQGRVTITRDTSASTAYMELSSLRSEDTAVYYCARDAYGRNHYDVWGQGTLVTVSS
VL: DIVMTQSPDSLAVSLGERATINCKSSQSLLNARPGKNYLAWYQQKPGQPPKLLIYWASTRESGVPDRFSGSGSGTDFTLTISSLQAEDVAVYYCKQSYLHRTFGGGTKVEIK
notes: IgG; also called Ab107
In the case of B1, the koff (usually a measure of how fast the partners let go of each other) stood at 0.00239 s⁻¹.

B2: SAD10320_P04_E11 (ADI-57388) (antibody, V domains shown)
VH: B1 VH with T44R, D46E, R103H, N104D, H105F
VL: B1 VL with P34T, L99G
notes: IgG; also called Ab111
Consider B2, for which the koff came out at 0.00297 s⁻¹.

B3: SAD10319_P05_A03 (ADI-57397) (antibody, V domains shown)
VH: QVQLVQSGAEVKKPGASVKVSCKASGYTFNDYAMHWVRQAPGQRLEWMGWIDAGTGNTYYSQKFQGRVTITRDTSASTAYMELSSLRSEDTAVYYCARDAHGHYFYDVWGQGTLVTVSS
VL: B1 VL with P34T, L99S, H100R
notes: IgG; also called Ab123
For the molecule B3, the koff was 0.0127 s⁻¹. Compared with the last molecule, the koff is about 4.3-fold higher.

B4: SAD10320_P04_G10 (ADI-48658) (antibody, V domains shown)
VH: B1 VH with T44R, D46E, R103H, N104D, H105F
VL: B1 VL with P34T, L99S, H100R
notes: IgG; also called Ab108
In turn, B4 gave a koff of 0.0189 s⁻¹. The koff values of the last two molecules are within 1.5-fold of each other.

B5: SAD10319_P05_C01 (ADI-57403) (antibody, V domains shown)
VH: B3 VH with N30T, Y32D, R98H, H101Y
VL: B1 VL with P34T, L99S, H100R
notes: IgG; also called Ab130
For the molecule B5, the koff stood at 0.013 s⁻¹.

B6: SAD10319_P05_B05 (ADI-57402) (antibody, V domains shown)
VH: B3 VH with N30V, Y59D
VL: B1 VL with P34T, L99S, H100R
notes: IgG; also called Ab129
In turn, B6 returned a koff of 0.00654 s⁻¹.

B7: SAD10319_P05_D01 (ADI-57406) (antibody, V domains shown)
VH: B3 VH with N30T, D31E, A33D, R44T, N57A, Y59V, H101Y, H103R, V108H
VL: B1 VL with P34T, L99S, H100R
notes: IgG; also called Ab133
Turning to B7, the koff is 0.00929 s⁻¹.

B8: SAD10319_P05_A02 (ADI-57396) (antibody, V domains shown)
VH: B3 VH with N30A, D31S, A33D, N57A, Y59V, H101Y, V108H
VL: B1 VL with P34T, L99S, H100R
notes: IgG; also called Ab122
As for B8, the koff worked out at 0.0246 s⁻¹.

B9: SAD10320_P04_F12 (ADI-57394) (antibody, V domains shown)
VH: B1 VH with T44R, D46E, W47R, R103H, N104E, H105F
VL: B1 VL with P34T, L99S, H100R
notes: IgG; also called Ab120
As for B9, the koff stood at 0.00259 s⁻¹.

B10: SAD10320_P04_F11 (ADI-57389) (antibody, V domains shown)
VH: B1 VH with T44R, D46E, R103H, N104E, H105F
VL: B1 VL with P34T, S97G, Y98H, L99S, H100R
notes: IgG; also called Ab112
Regarding B10, the koff turned out to be 0.00192 s⁻¹.

B11: SAD10319_P05_A05 (ADI-57398) (antibody, V domains shown)
VH: B3 VH with N30T, D31A, A33T, D52N, A53P, G54D, N57A, Y59D, H101Y, G102H
VL: B1 VL with P34T, L99S, H100R
notes: IgG; also called Ab124
For the molecule B11, the koff was 0.0118 s⁻¹. This koff lies about 6.1-fold higher than the previous one.

B12: SAD10320_P04_D11 (ADI-57387) (antibody, V domains shown)
VH: B1 VH with T44R, D46Q, R103H, N104V, H105F
VL: B1 VL with P34T, L99H
notes: IgG; also called Ab110
In turn, B12 displayed a koff of 0.00338 s⁻¹. This koff is about 3.5-fold lower than that of the molecule before.

B13: SAD10319_P05_C03 (ADI-57404) (antibody, V domains shown)
VH: B3 VH with N30T, D31S, A33N, W50S, N57A, Y59D, H101Y, G102H
VL: B1 VL with P34T, L99S, H100R
notes: IgG; also called Ab131
As to B13, the koff came out at 0.00327 s⁻¹.

B14: SAD10320_P04_D12 (ADI-57392) (antibody, V domains shown)
VH: B1 VH with T44R, D46E, R103H, N104D, H105F
VL: B1 VL with P34T, L99S
notes: IgG; also called Ab118
Molecule B14 had a koff of 0.00259 s⁻¹.

B15: SAD10319_P05_G02 (ADI-57414) (antibody, V domains shown)
VH: B3 VH with N30T, D31T, A53P, G54V, Y59K, A100H, H101Y, H103R, V108H
VL: B1 VL with P34T, L99S, H100R
notes: IgG; also called Ab142
B15 gave a koff of 0.0156 s⁻¹.

B16: SAD10319_P05_D03 (ADI-57408) (antibody, V domains shown)
VH: B3 VH with N30T, Y32D, Q43H, R98H, H101Y
VL: B1 VL with P34T, L99S, H100R
notes: IgG; also called Ab135
B16 had a koff of 0.0233 s⁻¹.

B17: SAD10320_P04_E12 (ADI-57393) (antibody, V domains shown)
VH: B1 VH with T44R, D46E, R103H, N104T, H105F
VL: B1 VL with P34T, L99H, H100V
notes: IgG; also called Ab119
In turn, B17 showed a koff of 0.0108 s⁻¹.

B18: SAD10320_P04_A12 (ADI-57391) (antibody, V domains shown)
VH: B1 VH with T44R, D46E, R103H, N104V, H105F
VL: B1 VL with P34T, L99H
notes: IgG; also called Ab117
Molecule B18 registered a koff of 0.0168 s⁻¹.

B19: SAD10319_P05_G01 (ADI-57413) (antibody, V domains shown)
VH: B3 VH with D31N, R44S, Y59D, G102H, H103R
VL: B1 VL with P34T, L99S, H100R
B19 returned a koff of 0.0236 s⁻¹.

B20: SAD10319_P05_D02 (ADI-57407) (antibody, V domains shown)
VH: B3 VH with N30D, D31S, A33T, Q43P, W50S, D52N, Y59D, A100H, H101Y
VL: B1 VL with P34T, L99S, H100R
notes: IgG; also called Ab134
B20 registered a koff of 0.0241 s⁻¹.

B21: SAD10319_P05_F01 (ADI-57412) (antibody, V domains shown)
VH: B3 VH with N30T, Y32D, R44S, R98H, H101Y
VL: B1 VL with P34T, L99S, H100R
notes: IgG; also called Ab140
Molecule B21 registered a koff of 0.0214 s⁻¹.

B22: SAD10319_P05_B04 (ADI-57401) (antibody, V domains shown)
VH: B3 VH with N30T, D31S, Y32A, A33V, W50D, D52N, N57A, Y59D, H101Y, H103R
VL: B1 VL with P34T, L99S, H100R
notes: IgG; also called Ab128
For the molecule B22, the koff was 0.00258 s⁻¹.

B23: SAD10319_P05_D04 (ADI-57409) (antibody, V domains shown)
VH: QVQLVQSGAEVKKPGASVKVSCKASGYTFTSDYMHWVRQAPGQRLEWMGWINAGTGATDYSQKFQGRVTITRDTSASTAYMELSSLRSEDTAVYYCAHDAYGRYHYDVWGQGTLVTVSS
VL: B1 VL with P34T, L99S, H100R
notes: IgG; also called Ab137
On to B23, for which the koff was found to be 0.022 s⁻¹.

B24: SAD10319_P05_D05 (ADI-57410) (antibody, V domains shown)
VH: B3 VH with N30A, Q43H, W50D, D52I, N57A, Y59K, A100H, H101Y
VL: B1 VL with P34T, L99S, H100R
notes: IgG; also called Ab138
On to B24, for which the koff stood at 0.0158 s⁻¹.

B25: SAD10319_P05_E04 (ADI-57411) (antibody, V domains shown)
VH: B3 VH with N30T, D31G, A33E, D52N, A53P, G54S, Y59V, A100H, H101Y
VL: B1 VL with P34T, L99S, H100R
notes: IgG; also called Ab139
Molecule B25 registered a koff of 0.00373 s⁻¹.

B26: SAD10320_P04_A11 (ADI-57386) (antibody, V domains shown)
VH: B1 VH with T44R, D46Q, Y101R, G102H, N104Y, H105F
VL: B1 VL with P34T, L99S, R101G
notes: IgG; also called Ab109
Molecule B26 returned a koff of 0.00741 s⁻¹.

B27: SAD10319_P05_B03 (ADI-57400) (antibody, V domains shown)
VH: B3 VH with N30E, D31S, A33V, D52H, A53S, Y59D, H101Y, V108H
VL: B1 VL with P34T, L99S, H100R
notes: IgG; also called Ab127
Consider B27, for which the koff was 0.0346 s⁻¹.

B28: SAD10319_P05_A01 (ADI-57395) (antibody, V domains shown)
VH: B23 VH with S31A, D32Y, Y33T, Q43H, A53P, G54D, H98R, G102H, R103H, H105F
VL: B1 VL with P34T, L99S, H100R
notes: IgG; also called Ab121
In the case of B28, the koff is 0.0251 s⁻¹.

B29: SAD10319_P05_C05 (ADI-57405) (antibody, V domains shown)
VH: B3 VH with N30T, D31S, A33N, Q43P, N57A, Y59H, H101Y, G102H
VL: B1 VL with P34T, L99S, H100R
notes: IgG; also called Ab132
As for B29, the koff is 0.00821 s⁻¹.

B30: SAD10320_P04_G11 (ADI-57390) (antibody, V domains shown)
VH: B1 VH with T44R, D46E, G102R, R103H, N104E, H105F
VL: B1 VL with P34T, L99Y
notes: IgG; also called Ab115
B30 yielded a koff of 0.00276 s⁻¹. This koff is about 3-fold lower than that of the molecule before.

B31: SAD10319_P05_B02 (ADI-57399) (antibody, V domains shown)
VH: B3 VH with N30T, D31S, A33N, Q43P, R44S, W50S, N57A, Y59D, H101Y, G102H
VL: B1 VL with P34T, L99S, H100R
notes: IgG; also called Ab126
For B31, the off-rate (koff) was determined as 0.00411 s⁻¹.
